Laboratory results from publication PMC6358605 (2019).

B1: biotinylated AviTag-BiP^19–413 (NBD) (domain or fragment)
chain: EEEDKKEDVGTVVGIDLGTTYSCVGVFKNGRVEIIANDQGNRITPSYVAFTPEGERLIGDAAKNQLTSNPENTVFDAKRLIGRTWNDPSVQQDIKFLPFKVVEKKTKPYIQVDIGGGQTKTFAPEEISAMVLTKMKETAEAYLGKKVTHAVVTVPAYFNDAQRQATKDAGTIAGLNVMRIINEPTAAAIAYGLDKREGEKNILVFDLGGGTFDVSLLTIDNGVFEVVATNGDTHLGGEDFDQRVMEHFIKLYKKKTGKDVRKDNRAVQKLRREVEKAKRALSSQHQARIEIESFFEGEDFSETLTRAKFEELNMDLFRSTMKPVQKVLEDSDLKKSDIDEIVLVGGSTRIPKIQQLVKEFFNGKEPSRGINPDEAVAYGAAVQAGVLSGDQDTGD
modifications: biotin (on the AviTag, by E. coli BirA)
B2: Full-length mouse MANF (wild-type) (natural protein)
chain: LRPGDCEVCISYLGRFYQDLKDRDVTFSPATIEEELIKFCREARGKENRLCYYIGATDDAATKIINEVSKPLAHHIPVEKICEKLKKKDSQICELKYDNQIDLSTVDLKKLRVKELKKILDDWGEMCKGCAEKSDYIRKINELMPKYAPKAASARTDL

Key:
[1] = biological target: B2; assay: BLI; K1/2 max, steady state
[2] = biological target: B1; assay: BLI; steady-state K1/2 max

| Binder | Kd [1] [µM] | Kd [2] [µM] |
| --- | --- | --- |
| B1 | 16 | – |
| TVDLKKLRVKELKKILDDWGEMCKGCAEKSDYIRKINELMPKYA (domain or fragment) [SAP domain (126-169)] | – | 10.3 |
| B2 | – | 13.9 |
